The values that follow come from publication PMC7589982.

The test deals with HPV16 E6 oncoprotein, full-length, LexA bait (pGilda/LexA) (human papillomavirus 16) (UniProt P03126). Briefly: two-hybrid; full-length HPV16 E6 in pGilda/LexA as bait; growth on medium lacking leucine, blue colonies, beta-galactosidase activity (unit) with ONPG.
Chain of UniProt P03126 (P03126 whole entry): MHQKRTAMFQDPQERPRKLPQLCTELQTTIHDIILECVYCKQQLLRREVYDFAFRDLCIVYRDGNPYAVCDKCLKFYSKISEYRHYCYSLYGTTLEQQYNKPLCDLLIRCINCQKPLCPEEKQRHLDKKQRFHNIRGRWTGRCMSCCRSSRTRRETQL

For “IRF-1 (interferon regulatory factor-1), yeast two-hybrid prey (natural protein)”, the β-galactosidase activity is 88.2 unit.
